# Source: the supplement of paper PMC12042874
# ± gives the uncertainty stated by the source.
# Assay: amyloid nucleation score (Sup35N fusion, yeast selection) (log enrichment); library NNK2; higher = more nucleation; inactive = no reads after selection
# In short: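 For the nucleation score, DiMSum gave the log enrichment of output over input reads, centred on the mode score of non-aggregating sequences. Psi-negative yeast expressing Sup35N fused to peptides of 20 random codons were induced with 100 μM copper sulfate for 24 hours and grown 7 days at 30°C on medium lacking adenine and uracil. Input and output plasmid inserts were Illumina-sequenced, and sequences with under 100 input reads were excluded.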
row,Substance,amyloid nucleation score
1,SDVELWRYG,2.55 ± 0.065
2,SDYYVFTDVFVGGYNLDE,-1.04 ± 1
3,SEAEVSFWAFPEEYIEHKYM,inactive
4,SECKSRRYIWWHIWYDLS,0.49 ± 0.12
5,SEFSNFKSLQPVYH,-0.047 ± 1.1
6,SEILWKTWNRFKPCFSRQYG,-0.675 ± 0.78
7,SELHGCYFHVHRRHRYRGYY,-0.015 ± 0.61
8,SELIGFLGGNQIELA,0.027 ± 0.34
9,SELWYVPLANVE,0.242 ± 0.5
10,SENGRLLLGLFGKRWDVNDV,-0.097 ± 0.79
11,SETNMVHPYAIYLKVRYANN,0.566 ± 0.24
12,SEVILYGMHSNINLPI,0.063 ± 1.1
13,SFALGLQRNVNCKDD,-0.06 ± 0.54
14,SFANVSVMSIYRAVNPSWRP,5.56 ± 0.072
15,SFCGLTVILGRSSSAWGLPT,6.959 ± 0.053
16,SFCSTGTEDTT,-0.213 ± 0.26
17,SFDLWLCTRRWLGGAWILL,-0.029 ± 0.65
18,SFINGILRFLSRRCNCIWLL,0.14 ± 0.5
19,SFKGDDVVYC,-0.052 ± 0.27
20,SFLSKSWY,1.18 ± 0.17
21,SFNGVILRNDVITRVLFDRQ,6.7 ± 0.051
22,SFNYP,inactive

row,Substance,amyloid nucleation score
1,SFSANADYGWNDRTNFFSVF,inactive
2,SFSCFVCCDQHKSRGSVWHY,8.683 ± 0.076
3,SFSESIPIIGGLRKAVSHTS,0.413 ± 0.24
4,SFVIIVLDDLCSCAN,1.62 ± 0.13
5,SFVVRTQMSGCANSFDEKFN,-0.479 ± 1
6,SFYSDYNQLIISMGHWSSMN,4.35 ± 0.11
7,SGAVHFQRRASCEGQDMLCW,-0.028 ± 0.26
8,SGAYSDGWYRQHFMVQL,inactive
9,SGCLQRFSQSLGRTCFIWLG,-1.29 ± 0.75
10,SGGRYTEATWECG,0.316 ± 0.65
11,SGGSDMQHS,1.61 ± 0.3
12,SGILREPVMIQVSVLQEQHW,5.025 ± 0.045
13,SGINNIWYEDLTLPKWSKG,-0.401 ± 0.55
14,SGIVG,0.791 ± 0.57
15,SGLSAVGSLGVNIEISSFVR,-0.983 ± 0.78
16,SGNKAMWKIIPLT,-0.262 ± 0.27
17,SGPLVWLLLWQFNDGLCGWG,-0.656 ± 0.49
18,SGSAESFLT,0.195 ± 0.53
19,SGSIKHMNLVMV,-0.027 ± 0.2
20,SGTSLRVTSNRRFDMYGVYG,-0.766 ± 0.5
21,SGVFAFTKLLNTIEGDFCHR,-0.721 ± 0.64
22,SGVPYVNNMEASELSWGKIP,inactive

row,Substance,amyloid nucleation score
1,SGWDCSRVIQVLQVKNIYDS,3.36 ± 0.06
2,SGYVRCLSAYDFLVNGLPML,0.519 ± 0.31
3,SHEIVCTSVRSLTIFKQVQR,3.24 ± 0.059
4,SHFSYKECRSAVRMLQYNGA,0.719 ± 0.52
5,SHHLRKSFCPC,-0.279 ± 0.5
6,SHPDRTIDSGFDTMRDAIWT,0.22 ± 0.63
7,SHSGIFSDAAHDVLGGGEEK,0.503 ± 0.8
8,SHTVTDGWCVV,1.52 ± 0.21
9,SHVCYSRNIH,1.06 ± 0.26
10,SIEYRDLKVCSLLYPVPQSG,0.127 ± 0.46
11,SIFITATCNVH,inactive
12,SIFMDRCDWPSCSFGRIHEV,-0.521 ± 0.35
13,SIFMYMYKSFFMGNYINGGM,1.03 ± 0.27
14,SIGKYLCYA,2.38 ± 0.057
15,SIKGIEVEYQGFRVCYSTVY,inactive
16,SILLPPFSRAFDSPRIYITP,-0.82 ± 0.55
17,SIRRLTR,-0.172 ± 0.49
18,SIRSKGDILSCSRTTFC,5.32 ± 0.071
19,SISGMRWSSNHQVRSVLGAT,1.17 ± 0.33
20,SISLCGVGVRWESVTAGNVC,0.51 ± 0.36
21,SISRVMEMTSLSIHRFIRLC,-0.918 ± 1.1
22,SISSVLCYWYKNHKNDIVSG,inactive

row,Substance,amyloid nucleation score
1,SISVLYNLRLLCIYNIVVYR,inactive
2,SIVFSLW,1.62 ± 0.14
3,SIVSTGFVRDLNRTRCYSGG,0.158 ± 0.56
4,SKCIRLPFFTLLLTNMFHVA,inactive
5,SKIGHD,0.545 ± 0.57
6,SKLYDVCVHRVWRTWGFQEN,0.027 ± 1
7,SKMSYAYFLSLTMRCVADSM,3.35 ± 0.06
8,SKNYSSWPNPHMIQGLLGSM,-0.735 ± 0.3
9,SKPGNIKWYSGFSKRQREAA,inactive
10,SKRRSSLQPS,-0.151 ± 0.31
11,SKRVDIKHSMRARDGLNRFW,-0.226 ± 1.1
12,SLCQSLDSWCYFLLWHWQWY,-0.637 ± 1.1
13,SLCREVPFLWDFCL,0.163 ± 0.63
14,SLEGYKLDAQRRFKMVCEMV,-0.267 ± 0.33
15,SLFGQLSCQASCRSSKDGGN,6.375 ± 0.061
16,SLFWNISPLKWSLLIGRCSV,-1.01 ± 0.78
17,SLGRGPYDRNMIVFMMRELT,-0.682 ± 0.64
18,SLHFCQTVFFYMQILSMLAC,inactive
19,SLKITSYSVCVCCLCMNCNT,7.6 ± 0.052
